According to article doi:10.1101/2024.07.30.605799 (bioRxiv, 2024):

B1: human CAD dihydroorotase (DHO) domain, wild type (domain or fragment, UniProt P27708 1456-1846, looked up)
chain: MTSQKLVRLPGLIDVHVHLREPGGTHKEDFASGTAAALAGGITMVCAMPNTRPPIIDAPALALAQKLAEAGARCDFALFLGASSENAGTLGTVAGSAAGLKLYLNETFSELRLDSVVQWMEHFETWPSHLPIVAHAEQQTVAAVLMVAQLTQRSVHICHVARKEEILLIKAAKARGLPVTCEVAPHHLFLSHDDLERLGPGKGEVRPELGSRQDVEALWENMAVIDCFASDHAPHTLEEKCGSRPPPGFPGLETMLPLLLTAVSEGRLSLDDLLQRLHHNPRRIFHLPPQEDTYVEVDLEHEWTIPSHMPFSKAHWTPFEGQKVKGTVRRVVLRGEVAYIDGQVLVPPGYGQDVRKWPQGAVPQLPPSAPATSEMTTTPERPRRGIPGLPD
modifications: carboxylated lysine K1556
B2: human CAD DHO domain bearing H1687R (domain or fragment, UniProt P27708 1456-1846, looked up)
chain: MTSQKLVRLPGLIDVHVHLREPGGTHKEDFASGTAAALAGGITMVCAMPNTRPPIIDAPALALAQKLAEAGARCDFALFLGASSENAGTLGTVAGSAAGLKLYLNETFSELRLDSVVQWMEHFETWPSHLPIVAHAEQQTVAAVLMVAQLTQRSVHICHVARKEEILLIKAAKARGLPVTCEVAPHHLFLSHDDLERLGPGKGEVRPELGSRQDVEALWENMAVIDCFASDRAPHTLEEKCGSRPPPGFPGLETMLPLLLTAVSEGRLSLDDLLQRLHHNPRRIFHLPPQEDTYVEVDLEHEWTIPSHMPFSKAHWTPFEGQKVKGTVRRVVLRGEVAYIDGQVLVPPGYGQDVRKWPQGAVPQLPPSAPATSEMTTTPERPRRGIPGLPD
B3: human CAD DHO domain bearing S1538L (domain or fragment, UniProt P27708 1456-1846, looked up)
chain: MTSQKLVRLPGLIDVHVHLREPGGTHKEDFASGTAAALAGGITMVCAMPNTRPPIIDAPALALAQKLAEAGARCDFALFLGALSENAGTLGTVAGSAAGLKLYLNETFSELRLDSVVQWMEHFETWPSHLPIVAHAEQQTVAAVLMVAQLTQRSVHICHVARKEEILLIKAAKARGLPVTCEVAPHHLFLSHDDLERLGPGKGEVRPELGSRQDVEALWENMAVIDCFASDHAPHTLEEKCGSRPPPGFPGLETMLPLLLTAVSEGRLSLDDLLQRLHHNPRRIFHLPPQEDTYVEVDLEHEWTIPSHMPFSKAHWTPFEGQKVKGTVRRVVLRGEVAYIDGQVLVPPGYGQDVRKWPQGAVPQLPPSAPATSEMTTTPERPRRGIPGLPD
modifications: carboxylated lysine K1556
B4: human CAD DHO domain bearing W1581R (domain or fragment, UniProt P27708 1456-1846, looked up)
chain: MTSQKLVRLPGLIDVHVHLREPGGTHKEDFASGTAAALAGGITMVCAMPNTRPPIIDAPALALAQKLAEAGARCDFALFLGASSENAGTLGTVAGSAAGLKLYLNETFSELRLDSVVQWMEHFETRPSHLPIVAHAEQQTVAAVLMVAQLTQRSVHICHVARKEEILLIKAAKARGLPVTCEVAPHHLFLSHDDLERLGPGKGEVRPELGSRQDVEALWENMAVIDCFASDHAPHTLEEKCGSRPPPGFPGLETMLPLLLTAVSEGRLSLDDLLQRLHHNPRRIFHLPPQEDTYVEVDLEHEWTIPSHMPFSKAHWTPFEGQKVKGTVRRVVLRGEVAYIDGQVLVPPGYGQDVRKWPQGAVPQLPPSAPATSEMTTTPERPRRGIPGLPD
B5: human CAD DHO domain bearing S1538A (domain or fragment, UniProt P27708 1456-1846, looked up)
chain: MTSQKLVRLPGLIDVHVHLREPGGTHKEDFASGTAAALAGGITMVCAMPNTRPPIIDAPALALAQKLAEAGARCDFALFLGAASENAGTLGTVAGSAAGLKLYLNETFSELRLDSVVQWMEHFETWPSHLPIVAHAEQQTVAAVLMVAQLTQRSVHICHVARKEEILLIKAAKARGLPVTCEVAPHHLFLSHDDLERLGPGKGEVRPELGSRQDVEALWENMAVIDCFASDHAPHTLEEKCGSRPPPGFPGLETMLPLLLTAVSEGRLSLDDLLQRLHHNPRRIFHLPPQEDTYVEVDLEHEWTIPSHMPFSKAHWTPFEGQKVKGTVRRVVLRGEVAYIDGQVLVPPGYGQDVRKWPQGAVPQLPPSAPATSEMTTTPERPRRGIPGLPD
B6: human CAD ATC domain bearing P2186S (domain or fragment, UniProt P27708 1917-2225, looked up)
chain: LLHSLVGQHILSVQQFTKDQMSHLFNVAHTLRMMVQKERSLDILKGKVMASMFYEVSTRTSSSFAAAMARLGGAVLSFSEATSSVQKGESLADSVQTMSCYADVVVLRHPQPGAVELAAKHCRRPVINAGDGVGEHPTQALLDIFTIREELGTVNGMTITMVGDLKHGRTVHSLACLLTQYRVSLRYVAPPSLRMPPTVRAFVASRGTKQEEFESIEEALPDTDVLYMTRIQKERFGSTQEYEACFGQFILTPHIMTRAKKKMVVMHPMSRVNEISVEVDSDPRAAYFRQAENGMYIRMALLATVLGRF

Target: the molecule itself
Assay: SEC

| Protein | stoichiometry N |
| --- | --- |
| B1 | 2 |
| B2 | 2 |
| B3 | 2 |
| B4 | 2 |
| B5 | 2 |

Target: the molecule itself
Assay: SEC
Remark: another data set of the same source

| Protein | stoichiometry N |
| --- | --- |
| B6 | 3 |
